Values quoted from earlier work, collected in article PMC3101942.

Biological target: tissue factor (Homo sapiens) (UniProt P13726)
UniProt P13726, sequence (P13726 33-251): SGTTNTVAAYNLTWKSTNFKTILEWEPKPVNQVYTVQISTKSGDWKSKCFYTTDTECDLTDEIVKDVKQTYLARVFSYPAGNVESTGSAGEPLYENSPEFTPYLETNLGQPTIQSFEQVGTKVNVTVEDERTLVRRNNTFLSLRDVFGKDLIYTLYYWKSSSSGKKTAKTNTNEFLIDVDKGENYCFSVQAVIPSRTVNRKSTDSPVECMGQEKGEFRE

- Kd: 1 pM
Substance: factor VII (from UniProt P08709)
